According to patent US20080201790A1 (published 2008):

B1: recombinant MEKK4 protein expressed in E. coli, residues 1261-1597 of the full length protein (enzyme)
chain: RRSWELRTLISQTKDSASKQGPIEAIQKSVRLFEERRYREMRRKNIIGQVCDTPKSYDNVMHVGLRKVTFKWQRGNKIGEGQYGKVYTCISVDTGELMAMKEIRFQPNDHKTIKETADELKIFEGIKHPNLVRYFGVELHREEMYIFMEYCDEGTLEEVSRLGLQEHVIRLYTKQITVAINVLHEHGIVHRDIKGANIFLTSSGLIKLGDFGCSVKLKNNAQTMPGEVNSTLGTAAYMAPEVITRAKGEGHGRAADIWSLGCVVIEMVTGKRPWHEYEHNFQIMYKVGMGHKPPIPERLSPEGKAFLSHCLESDPKIRWTASQLLDHAFVKVCTDEE
notes: No tag is stated; also called truncated recombinant MEKK4
B2: MEKK4 from a Cos cell transient transfection (enzyme)
chain: MRDAIAEPVPPPALADTPAAAMEELRPAPPPQPEPDPECCPAARQECMLGESARKSMESDPEDFSDETNTETLYGTSPPSTPRQMKRLSAKHQRNSAGRPASRSNLKEKMNTPSQSPHKDLGKGVETVEEYSYKQEKKIRATLRTTERDHKKNAQCSFMLDSVAGSLPKKSIPDVDLNKPYLSLGCSNAKLPVSMPMPIARTARQTSRTDCPADRLKFFETLRLLLKLTSVSKKKDREQRGQENTAAFWFNRSNELIWLELQAWHAGRTINDQDLFLYTARQAIPDIINEILTFKVNYGSIAFSSNGAGFNGPLVEGQCRTPQETNRVGCSSYHEHLQRQRVSFEQVKRIMELLEYMEALYPSLQALQKDYERYAAKDFEDRVQALCLWLNITKDLNQKLRIMGTVLGIKNLSDIGWPVFEIPSPRPSKGYEPEDEVEDTEVELRELESGTEESDEEPTPSPRVPELRLSTDTILDSRSQGCVSRKLERLESEEDSIGWGTADCGPEASRHCLTSIYRPFVDKALKQMGLRKLILRLHKLMNGSLQRARVALVKDDRPVEFSDFPGPMWGSDYVQLSGTPPSSEQKCSAVSWEELRAMDLPSFEPAFLVLCRVLLNVIHECLKLRLEQRPAGEPSLLSIKQLVRECKEVLKGGLLMKQYYQFMLQEVLGGLEKTDCNMDAFEEDLQKMLMVYFDYMRSWIQMLQQLPQASHSLKNLLEEEWNFTKEITHYIRGGEAQAGKLFCDIAGMLLKSTGSFLESGLQESCAELWTSADDNGAADELRRSVIEISRALKELFHEARERASKALGFAKMLRKDLEIAAEFVLSASARELLDALKAKQYVKVQIPGLENLHVFVPDSLAEEKKIILQLLNAATGKDCSKDPDDVFMDAFLLLTKHGDRARDSEDGWGTWEARAVKIVPQVETVDTLRSMQVDNLLLVVMESAHLVLQRKAFQQSIEGLMTVRHEQTSSQPIIAKGLQQLKNDALELCNRISDAIDRVDHMFTLEFDAEVEESESATLQQYYREAMIQGYNFGFEYHKEVVRLMSGEFRQKIGDKYISFAQKWMNYVLTKCESGRGTRPRWATQGFDFLQAIEPAFISALPEDDFLSLQALMNECIGHVIGKPHSPVTAIHRNSPRPVKVPRCHSDPPNPHLIIPTPEGFSTRSVPSDARTHGNSVAAAAAVRAAATTAAGRPGPGGGDSVPAKPVNTAPDTRGSSVPENDRLASIAAELQFRSLSRHSSPTEERDEPAYPRSDSSGSTRRSWELRTLISQTKDSASKQGPIEAIQKSVRLFEERRYREMRRKNIIGQVCDTPKSYDNVMHVGLRKVTFKWQRGNKIGEGQYGKVYTCISVDTGELMAMKEIRFQPNDHKTIKETADELKIFEGIKHPNLVRYFGVELHREEMYIFMEYCDEGTLEEVSRLGLQEHVIRLYTKQITVAINVLHEHGIVHRDIKGANIFLTSSGLIKLGDFGCSVKLKNNAQTMPGEVNSTLGTAAYMAPEVITRAKGEGHGRAADIWSLGCVVIEMVTGKRPWHEYEHNFQIMYKVGMGHKPPIPERLSPEGKAFLSHCLESDPKIRWTASQLLDHAFVKVCTDEE
notes: also called MEKK4.2

Experiments:
Assay in all cases: GST fusion pull-down on glutathione-Sepharose, anti-MEKK4 immunoblot
[1] = target: T1, GST-Rac (GDP bound) on glutathione-Sepharose (UniProt P08515 1-218 = GST)
T1 construct: Loaded with GDP
T1 sequence (P08515 whole entry): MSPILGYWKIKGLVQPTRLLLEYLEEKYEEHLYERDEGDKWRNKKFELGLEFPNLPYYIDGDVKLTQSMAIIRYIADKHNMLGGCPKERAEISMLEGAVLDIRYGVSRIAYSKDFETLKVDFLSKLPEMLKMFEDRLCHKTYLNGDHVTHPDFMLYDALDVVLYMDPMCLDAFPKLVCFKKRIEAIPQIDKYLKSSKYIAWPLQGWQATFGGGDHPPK
Protocol: (§1) Each GST fusion protein had GTPγs or GDP bound to the Cdc42, Rac or Ras moiety of the fusion protein. Following the incubation the beads were washed extensively and the bound proteins removed in SDS-Laemmli buffer and resolved by SDS-PAGE using 10% acrylamide gels.

[2] = target: T2, GST-Cdc42 (GDP bound) on glutathione-Sepharose (UniProt P60953 1-191)
T2 construct: Loaded with GDP; not shown: glutathione S-transferase fusion partner
T2 sequence (P60953 whole entry, the tested form may be a part): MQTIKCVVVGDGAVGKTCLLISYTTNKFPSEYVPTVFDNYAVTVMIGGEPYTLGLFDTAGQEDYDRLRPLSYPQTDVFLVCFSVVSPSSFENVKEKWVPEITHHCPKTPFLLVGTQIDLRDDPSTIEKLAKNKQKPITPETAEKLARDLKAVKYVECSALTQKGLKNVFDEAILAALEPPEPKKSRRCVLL
Protocol: as §1

[3] = target: T3, GST fusion protein of Ha-Ras (GTPγS bound) on glutathione-Sepharose (UniProt P08515 1-218 = GST; P01112 1-189)
T3 construct: also called GST-Ras
T3 sequence (P08515 1-218, tags or fused parts left off): as the sequence (P08515 whole entry) above
Protocol: as §1

[4] = target: T4, GST fusion protein of Ha-Ras (GDP bound) on glutathione-Sepharose (UniProt P08515 1-218 = GST; P01112 1-189)
T4 construct: also called GST-Ras
T4 sequence (P08515 1-218, tags or fused parts left off): as the sequence (P08515 whole entry) above
Protocol: as §1

Binder | percent of the MEKK4 bound in the presence of GTPγS [1] [%] | percent of the MEKK4 bound in the presence of GTPγS [2] [%] | binding result [3] | binding result [4]
B1 | < 10 | < 10 | no binding | no binding
B2 | < 10 | < 10 |  | 
